Earlier results on two substances are cited in article PMC13341169.

Where two headings read alike, the source gives them in different places.

Data set [1] deals with PKA C-subunit (Homo sapiens) (UniProt P17612).
Data set [2] has the same target. This is another data set of the same source.

With PKIβ (from UniProt Q9C010), the Kd in data set [1] is 7.1 nM.
As for PKIγ (from UniProt Q9Y2B9), the Kd in data set [2] is 0.4 nM.
